B1: Centrosome-associated zinc finger protein Cp190 (Drosophila melanogaster (Fruit fly)), Q24478 (parent)
chain: MGEVKSVKVDNWGVFFLQKLQNFFNKTDYCDLTLQFRDNSQLKVHRLVLSACTDYFNVLEQTCEIVDDALIMPNEFQADVVVPIVNFMYTGTLEFELKMYGKLLRTAKEMNMTVLLKLLEAHRRTMENVNRQQRPPSPKGIRRRTVGQPSSGLPQQRVLGPSPQSRNVATPIAQRANTQRGSTGNTMSRTSGGSNRSPYGDSSNVKQEPTSPFEQLRKGYNNNKRPAQTSLLSPPSKKPSLEEVKEFAEQQRMRKQIAAEYGDNDPEYDGGMLYDDVHAGDDDDDDMPPQPSTSKQQSPQGTQTQLEHGSTTIILKQDSPSQTPTIIVKDSSNAKLNHTKIIAEVLRQYPHIVKGHKNIKLKIMPNTPAAPTEKSAPATVKPPANQSSATTSPHKKLHVSFKADKSTPLITAQQKAASSQQKSGTSQTTGNQGTGANPPANTAAAQKRRIDSKTMHALIAQGAENTTGPWLCLRCGVNGRPISIPSYRGFRRHLINTHKETIDPALCEHCGWRSVNNRELHFHMYMEHQTKSLLYTFAECALCNQSYRTKGELEAHINEVHTDDNKQQCIYCNKVFEQELQLYRHMKSYHKEQALEDGIIDETDEEFLGSQDEEEEAEGDEEQEPEQTGKVRILSDISLPATSAITVQQAQQEQLQEEDVEQVQQEVKFVGADGNEVELTDEQRKEILSQLNQQQAGATAGGVVMVLSEPEAEHVKQETDEKSLAGTEEEYDDSQIYSELGAADSVESAKKNIADESKESIDNLEWAENLIAESEEQSNKEPKSDKPRDDISEKLKELTGDWTEDENDDDVDDKPATAELASELANKDPEPTVHEEEDDIDLALQSLHKGPEEATEEKASEESVTSADDAVDAVPNINSQPEKMDVDSEAADEKASKAEVQIKKEAELENDQEEFIKEDSPIPHSDSVAELREAVTASEGEDDVHLEADNIRKELLDELIAEAEKPDQEKDIVQSEENATTEALDRSVTDEDDLVPPTQVSTEQMEIDEPAAEKAAENNEDTRTADEKEAVEDKPNQTQDVTTAEKPTLESAKAGDEATSGEAASVDKVKSLISEWGDDDEDEDENGVSAAAKEEL
partner: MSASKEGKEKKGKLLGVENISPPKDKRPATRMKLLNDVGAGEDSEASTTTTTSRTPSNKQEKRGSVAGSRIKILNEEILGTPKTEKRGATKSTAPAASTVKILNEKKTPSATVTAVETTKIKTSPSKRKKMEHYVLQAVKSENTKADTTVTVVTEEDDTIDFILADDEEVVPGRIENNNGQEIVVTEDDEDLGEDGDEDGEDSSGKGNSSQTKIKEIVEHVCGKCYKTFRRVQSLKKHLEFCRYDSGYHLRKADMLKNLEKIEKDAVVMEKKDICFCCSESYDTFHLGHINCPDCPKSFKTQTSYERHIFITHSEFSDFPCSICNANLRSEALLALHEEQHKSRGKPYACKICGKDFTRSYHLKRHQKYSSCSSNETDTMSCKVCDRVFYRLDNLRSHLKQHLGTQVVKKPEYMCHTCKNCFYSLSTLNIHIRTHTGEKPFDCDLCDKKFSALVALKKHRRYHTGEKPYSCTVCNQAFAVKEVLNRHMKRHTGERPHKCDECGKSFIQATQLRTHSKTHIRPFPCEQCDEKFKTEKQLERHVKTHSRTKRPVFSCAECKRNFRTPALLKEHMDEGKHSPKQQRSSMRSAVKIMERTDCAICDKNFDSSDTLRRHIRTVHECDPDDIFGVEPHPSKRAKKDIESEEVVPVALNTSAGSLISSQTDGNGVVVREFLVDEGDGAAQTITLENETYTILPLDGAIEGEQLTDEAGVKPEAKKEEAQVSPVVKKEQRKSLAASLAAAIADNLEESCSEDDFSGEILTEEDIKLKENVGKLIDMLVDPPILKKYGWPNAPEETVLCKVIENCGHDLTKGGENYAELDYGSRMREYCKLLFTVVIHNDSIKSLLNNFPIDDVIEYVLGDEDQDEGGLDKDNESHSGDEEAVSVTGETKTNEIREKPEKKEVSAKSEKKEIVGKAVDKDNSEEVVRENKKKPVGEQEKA
B2: Centrosome-associated zinc finger protein Cp190 (Drosophila melanogaster (Fruit fly)), Q24478 (parent)
chain: B1 chain
partner: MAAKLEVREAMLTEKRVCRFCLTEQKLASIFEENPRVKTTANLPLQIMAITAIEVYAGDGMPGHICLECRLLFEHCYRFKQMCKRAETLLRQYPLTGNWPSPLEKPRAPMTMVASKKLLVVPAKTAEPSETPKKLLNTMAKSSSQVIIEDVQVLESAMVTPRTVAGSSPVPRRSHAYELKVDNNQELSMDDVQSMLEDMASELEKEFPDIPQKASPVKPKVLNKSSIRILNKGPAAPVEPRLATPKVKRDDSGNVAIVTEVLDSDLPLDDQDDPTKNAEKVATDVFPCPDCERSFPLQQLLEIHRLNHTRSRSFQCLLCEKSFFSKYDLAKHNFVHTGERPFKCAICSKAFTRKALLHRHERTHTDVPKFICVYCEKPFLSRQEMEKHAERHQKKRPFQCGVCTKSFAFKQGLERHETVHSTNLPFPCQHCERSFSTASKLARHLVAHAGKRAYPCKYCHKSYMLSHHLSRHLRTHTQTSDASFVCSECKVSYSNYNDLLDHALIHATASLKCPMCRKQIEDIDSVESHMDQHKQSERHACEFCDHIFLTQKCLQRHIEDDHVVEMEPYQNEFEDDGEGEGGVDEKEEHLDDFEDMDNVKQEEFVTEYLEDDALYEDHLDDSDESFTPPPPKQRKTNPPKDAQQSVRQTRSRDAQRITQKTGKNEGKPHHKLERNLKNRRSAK

Variants of: B1
Details: with suhw_drome su(Hw)

| Variant | effect of a mutation on the interaction |
| --- | --- |
| V7A | with no effect |
| V114A | with no effect |
| K19A | with no effect |

Continued, values first:

| effect of a mutation on the interaction | Variant |
| --- | --- |
| with no effect | K117S |
| with no effect | V114N |

Variants of: B1
Details: with suhw_drome su(Hw)
Remark: another data set of the same source

| Variant | effect of a mutation on the interaction |
| --- | --- |
| F15A | disrupting interaction strength |
| V114A | disrupting interaction strength |
| K19A | disrupting interaction strength |

Other lines, results leading:

| effect of a mutation on the interaction | Variant |
| --- | --- |
| disrupting interaction strength | K117S |
| disrupting interaction strength | L118A |
| disrupting interaction strength | V114N |

Variants of: B1
Details: with suhw_drome su(Hw)
Remark: another data set of the same source

| effect of a mutation on the interaction | Variant |
| --- | --- |
| with no effect | L118A |
| with no effect | F15A |

Variants of: B1
Details: with suhw_drome su(Hw)
Remark: another data set of the same source

| effect of a mutation on the interaction | Variant |
| --- | --- |
| disrupting interaction strength | V7A |

Variants of: B2
Details: with pita_drome pita

| Variant | effect of a mutation on the interaction |
| --- | --- |
| K19A | with no effect |
| F15A | with no effect |

Results, then the variant that gave them:

| effect of a mutation on the interaction | Variant |
| --- | --- |
| with no effect | L118A |
| with no effect | V114A |
| with no effect | V114N |
| with no effect | K117S |

Variants of: B2
Details: with pita_drome pita
Remark: another data set of the same source

| effect of a mutation on the interaction | Variant |
| --- | --- |
| disrupting interaction strength | L118A |
| disrupting interaction strength | V7A |

Variants of: B2
Details: with pita_drome pita
Remark: another data set of the same source

| Variant | effect of a mutation on the interaction |
| --- | --- |
| K19A | disrupting interaction strength |
| F15A | disrupting interaction strength |

More lines, now with the values ahead:

| effect of a mutation on the interaction | Variant |
| --- | --- |
| disrupting interaction strength | V114A |
| disrupting interaction strength | V114N |
| disrupting interaction strength | K117S |

Variants of: B2
Details: with pita_drome pita
Remark: another data set of the same source

| effect of a mutation on the interaction | Variant |
| --- | --- |
| with no effect | V7A |

— IntAct's records for PubMed 34830280
